Measurements from patent publication US20210388110A1 (published 2021).

biological target: T1, soluble human CD3ε chain (human, UniProt P07766 23-126, limits assumed); assay: SPR (Biacore)
T1 construct: the text says soluble human CD3ε chain; also called human CD3 epsilon chain
T1 sequence (P07766 23-126 limits assumed): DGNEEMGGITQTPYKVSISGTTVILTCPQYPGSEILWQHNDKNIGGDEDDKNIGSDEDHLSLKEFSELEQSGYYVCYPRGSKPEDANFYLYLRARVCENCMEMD

| Binder | Kd [nM] |
| --- | --- |
| TR01H040-E22Hh/none-Hi-Kn010G3/L0000-k0 (antibody, human IgG1, kappa, L234A L235A, N297A, single-arm) heavy: QVQLVESGGGLVQPGRSLRLSCAASGFTFSNAWMHWVRQAPGKGLEWVAQIKDKSQNYATYYAESVKGRFTISRADSKNSIYLQMNSLKTEDTAVYYCRYVHYSASYGVDAWGQGTTVTVSSASTKGPSVFPLAPSSKSTSGGTAALGCLVKDYFPEPVTVSWNSGALTSGVHTFPAVLQSSGLYSLSSVVTVPSSSLGTQTYICNVNHKPSNTKVDKKVEPKSCDKTHTCPPCPAPEAAGGPSVFLFPPKPKDTLMISRTPEVTCVVVDVSHEDPEVKFNWYVDGVEVHNAKTKPREEQYASTYRVVSVLTVLHQDWLNGKEYKCKVSNKALPAPIEKTISKAKGQPREPQVYTLPPSRCELTKNQVSLSCAVKGFYPSDIAVEWESNGQPENNYKTTPPVLDSDGSFFLVSKLTVDKSRWQQGNVFSCSVMHEALHNHYTQKSLSLSPDYKDDDDK EPKSSDKTHTCPPCPAPELLGGPSVFLFPPKPKDTLMISRTPEVTCVVVDVSHEDPEVKFNWYVDGVEVHNAKTKPREEQYNSTYRVVSVLTVLHQDWLNGKEYKCKVSNKALPAPIEKTISKAKGQPREPQVCTLPPSRDELTKNQVSLWCLVKGFYPSDIAVEWESNGQPENNYKTTPPVLDSDGSFFLYSKLTVDKSRWQQGNVFSCSVMHEALHNRYTQKSLSLSP light: DIVMTQSPLSLPVTPGEPASISCRSSQSLVHSNRNTYLHWYQQKPGQAPRLLIYKVSNRFSGVPDRFSGSGSGTDFTLKISRVEAEDVGVYYCGQGTQVPYTFGQGTKLEIKRTVAAPSVFIFPPSDEQLKSGTASVVCLLNNFYPREAKVQWKVDNALQSGNSQESVTEQDSKDSTYSLSSTLTLSKADYEKHKVYACEVTHQGLSSPVTKSFNRGEC | 36 |
| TR01H003-E22Hh//-Hi-Kn010G3/L0000-k0 (antibody, human IgG1, kappa, L234A L235A, N297A, single-arm) heavy: QVQLVESGGGVVQPGRSLRLSCAASGFTFSNAWMHWVRQAPGKGLEWVAQIKAKSNNYATYYAESVKGRFTISRDDSKNSLYLQMNSLKTEDTAVYYCRRVHYGAYYGVDAWGQGTTVTVSSASTKGPSVFPLAPSSKSTSGGTAALGCLVKDYFPEPVTVSWNSGALTSGVHTFPAVLQSSGLYSLSSVVTVPSSSLGTQTYICNVNHKPSNTKVDKKVEPKSCDKTHTCPPCPAPEAAGGPSVFLFPPKPKDTLMISRTPEVTCVVVDVSHEDPEVKFNWYVDGVEVHNAKTKPREEQYASTYRVVSVLTVLHQDWLNGKEYKCKVSNKALPAPIEKTISKAKGQPREPQVYTLPPSRCELTKNQVSLSCAVKGFYPSDIAVEWESNGQPENNYKTTPPVLDSDGSFFLVSKLTVDKSRWQQGNVFSCSVMHEALHNHYTQKSLSLSPDYKDDDDK EPKSSDKTHTCPPCPAPELLGGPSVFLFPPKPKDTLMISRTPEVTCVVVDVSHEDPEVKFNWYVDGVEVHNAKTKPREEQYNSTYRVVSVLTVLHQDWLNGKEYKCKVSNKALPAPIEKTISKAKGQPREPQVCTLPPSRDELTKNQVSLWCLVKGFYPSDIAVEWESNGQPENNYKTTPPVLDSDGSFFLYSKLTVDKSRWQQGNVFSCSVMHEALHNRYTQKSLSLSP light: DIVMTQSPLSLPVTPGEPASISCRSSQSLVHSNRNTYLHWYQQKPGQAPRLLIYKVSNRFSGVPDRFSGSGSGTDFTLKISRVEAEDVGVYYCGQGTQVPYTFGQGTKLEIKRTVAAPSVFIFPPSDEQLKSGTASVVCLLNNFYPREAKVQWKVDNALQSGNSQESVTEQDSKDSTYSLSSTLTLSKADYEKHKVYACEVTHQGLSSPVTKSFNRGEC | 40.3 |
| CE115HA121-E22Hh//-Hi-Kn010G3/L0000-k0 (antibody, human IgG1, kappa, L234A L235A, N297A, single-arm) heavy: QVQLVESGGGVVQPGRSLRLSCAASGFTFSNAWMHWVRQAPGKGLEWVALIKAKSNNYATYYAESVKGRFTISRDDSKNSLYLQMNSLKTEDTAVYYCRYVHYGAYYGVDAWGQGTTVTVSSASTKGPSVFPLAPSSKSTSGGTAALGCLVKDYFPEPVTVSWNSGALTSGVHTFPAVLQSSGLYSLSSVVTVPSSSLGTQTYICNVNHKPSNTKVDKKVEPKSCDKTHTCPPCPAPEAAGGPSVFLFPPKPKDTLMISRTPEVTCVVVDVSHEDPEVKFNWYVDGVEVHNAKTKPREEQYASTYRVVSVLTVLHQDWLNGKEYKCKVSNKALPAPIEKTISKAKGQPREPQVYTLPPSRCELTKNQVSLSCAVKGFYPSDIAVEWESNGQPENNYKTTPPVLDSDGSFFLVSKLTVDKSRWQQGNVFSCSVMHEALHNHYTQKSLSLSPDYKDDDDK EPKSSDKTHTCPPCPAPELLGGPSVFLFPPKPKDTLMISRTPEVTCVVVDVSHEDPEVKFNWYVDGVEVHNAKTKPREEQYNSTYRVVSVLTVLHQDWLNGKEYKCKVSNKALPAPIEKTISKAKGQPREPQVCTLPPSRDELTKNQVSLWCLVKGFYPSDIAVEWESNGQPENNYKTTPPVLDSDGSFFLYSKLTVDKSRWQQGNVFSCSVMHEALHNRYTQKSLSLSP light: DIVMTQSPLSLPVTPGEPASISCRSSQSLVHSNRNTYLHWYQQKPGQAPRLLIYKVSNRFSGVPDRFSGSGSGTDFTLKISRVEAEDVGVYYCGQGTQVPYTFGQGTKLEIKRTVAAPSVFIFPPSDEQLKSGTASVVCLLNNFYPREAKVQWKVDNALQSGNSQESVTEQDSKDSTYSLSSTLTLSKADYEKHKVYACEVTHQGLSSPVTKSFNRGEC | 67.6 |
| CE115HA192-E22Hh//-Hi-Kn010G3/L0000-k0 (antibody, human IgG1, kappa, L234A L235A, N297A, single-arm) heavy: QVQLVESGGGVVQPGRSLRLSCAASGFTFSNAWMHWVRQAPGKGLEWVAQIKAKSNNYATYYAESVKGRFTISRDDSKNSLYLQMNSLKTEDTAVYYCRYVHYYAYYGVDAWGQGTTVTVSSASTKGPSVFPLAPSSKSTSGGTAALGCLVKDYFPEPVTVSWNSGALTSGVHTFPAVLQSSGLYSLSSVVTVPSSSLGTQTYICNVNHKPSNTKVDKKVEPKSCDKTHTCPPCPAPEAAGGPSVFLFPPKPKDTLMISRTPEVTCVVVDVSHEDPEVKFNWYVDGVEVHNAKTKPREEQYASTYRVVSVLTVLHQDWLNGKEYKCKVSNKALPAPIEKTISKAKGQPREPQVYTLPPSRCELTKNQVSLSCAVKGFYPSDIAVEWESNGQPENNYKTTPPVLDSDGSFFLVSKLTVDKSRWQQGNVFSCSVMHEALHNHYTQKSLSLSPDYKDDDDK EPKSSDKTHTCPPCPAPELLGGPSVFLFPPKPKDTLMISRTPEVTCVVVDVSHEDPEVKFNWYVDGVEVHNAKTKPREEQYNSTYRVVSVLTVLHQDWLNGKEYKCKVSNKALPAPIEKTISKAKGQPREPQVCTLPPSRDELTKNQVSLWCLVKGFYPSDIAVEWESNGQPENNYKTTPPVLDSDGSFFLYSKLTVDKSRWQQGNVFSCSVMHEALHNRYTQKSLSLSP light: DIVMTQSPLSLPVTPGEPASISCRSSQSLVHSNRNTYLHWYQQKPGQAPRLLIYKVSNRFSGVPDRFSGSGSGTDFTLKISRVEAEDVGVYYCGQGTQVPYTFGQGTKLEIKRTVAAPSVFIFPPSDEQLKSGTASVVCLLNNFYPREAKVQWKVDNALQSGNSQESVTEQDSKDSTYSLSSTLTLSKADYEKHKVYACEVTHQGLSSPVTKSFNRGEC | 50.5 |

Stronger by Kd, values ahead:

| Kd [nM] | Binder |
| --- | --- |
| 22.3 | CE115HA251-E22Hh//-Hi-Kn010G3/L0000-k0 (antibody, human IgG1, kappa, L234A L235A, N297A, single-arm) heavy: QVQLVESGGGVVQPGRSLRLSCAASGFTFSNAWMHWVRQAPGKGLEWVAQIKAKSNNYATYYAESVKGRFTISRDDSKNSLYLQMNSLKTEDTAVYYCRYVHYYYYYGVDAWGQGTTVTVSSASTKGPSVFPLAPSSKSTSGGTAALGCLVKDYFPEPVTVSWNSGALTSGVHTFPAVLQSSGLYSLSSVVTVPSSSLGTQTYICNVNHKPSNTKVDKKVEPKSCDKTHTCPPCPAPEAAGGPSVFLFPPKPKDTLMISRTPEVTCVVVDVSHEDPEVKFNWYVDGVEVHNAKTKPREEQYASTYRVVSVLTVLHQDWLNGKEYKCKVSNKALPAPIEKTISKAKGQPREPQVYTLPPSRCELTKNQVSLSCAVKGFYPSDIAVEWESNGQPENNYKTTPPVLDSDGSFFLVSKLTVDKSRWQQGNVFSCSVMHEALHNHYTQKSLSLSPDYKDDDDK EPKSSDKTHTCPPCPAPELLGGPSVFLFPPKPKDTLMISRTPEVTCVVVDVSHEDPEVKFNWYVDGVEVHNAKTKPREEQYNSTYRVVSVLTVLHQDWLNGKEYKCKVSNKALPAPIEKTISKAKGQPREPQVCTLPPSRDELTKNQVSLWCLVKGFYPSDIAVEWESNGQPENNYKTTPPVLDSDGSFFLYSKLTVDKSRWQQGNVFSCSVMHEALHNRYTQKSLSLSP light: DIVMTQSPLSLPVTPGEPASISCRSSQSLVHSNRNTYLHWYQQKPGQAPRLLIYKVSNRFSGVPDRFSGSGSGTDFTLKISRVEAEDVGVYYCGQGTQVPYTFGQGTKLEIKRTVAAPSVFIFPPSDEQLKSGTASVVCLLNNFYPREAKVQWKVDNALQSGNSQESVTEQDSKDSTYSLSSTLTLSKADYEKHKVYACEVTHQGLSSPVTKSFNRGEC |
| 9.48 | CE115HA252-E22Hh//-Hi-Kn010G3/L0000-k0 (antibody, human IgG1, kappa, L234A L235A, N297A, single-arm) heavy: QVQLVESGGGVVQPGRSLRLSCAASGFTFSNAWMHWVRQAPGKGLEWVAQIKAKSNNYKKYYAESVKGRFTISRDDSKNSLYLQMNSLKTEDTAVYYCRYVHYYYYYGVDAWGQGTTVTVSSASTKGPSVFPLAPSSKSTSGGTAALGCLVKDYFPEPVTVSWNSGALTSGVHTFPAVLQSSGLYSLSSVVTVPSSSLGTQTYICNVNHKPSNTKVDKKVEPKSCDKTHTCPPCPAPEAAGGPSVFLFPPKPKDTLMISRTPEVTCVVVDVSHEDPEVKFNWYVDGVEVHNAKTKPREEQYASTYRVVSVLTVLHQDWLNGKEYKCKVSNKALPAPIEKTISKAKGQPREPQVYTLPPSRCELTKNQVSLSCAVKGFYPSDIAVEWESNGQPENNYKTTPPVLDSDGSFFLVSKLTVDKSRWQQGNVFSCSVMHEALHNHYTQKSLSLSPDYKDDDDK EPKSSDKTHTCPPCPAPELLGGPSVFLFPPKPKDTLMISRTPEVTCVVVDVSHEDPEVKFNWYVDGVEVHNAKTKPREEQYNSTYRVVSVLTVLHQDWLNGKEYKCKVSNKALPAPIEKTISKAKGQPREPQVCTLPPSRDELTKNQVSLWCLVKGFYPSDIAVEWESNGQPENNYKTTPPVLDSDGSFFLYSKLTVDKSRWQQGNVFSCSVMHEALHNRYTQKSLSLSP light: DIVMTQSPLSLPVTPGEPASISCRSSQSLVHSNRNTYLHWYQQKPGQAPRLLIYKVSNRFSGVPDRFSGSGSGTDFTLKISRVEAEDVGVYYCGQGTQVPYTFGQGTKLEIKRTVAAPSVFIFPPSDEQLKSGTASVVCLLNNFYPREAKVQWKVDNALQSGNSQESVTEQDSKDSTYSLSSTLTLSKADYEKHKVYACEVTHQGLSSPVTKSFNRGEC |
